Data reported in patent US20180086841A1 (Merck Sharp & Dohme, published 2018).

How the values were obtained:
human CD27 = target: T1, human CD27 (human, UniProt P26842 21-260); assay: flow cytometry on transiently transfected CHO-K1 cells
T1 construct: also called hCD27; HsCD27

[1] = target: T2, Macaca mulatta CD27 (mmCD27) (Macaca mulatta (rhesus) / Macaca …, UniProt P26842 21-260 (human entry)); assay: as above
T2 construct: also called Rhesus CD27; rhesus monkey CD27
T2 chain: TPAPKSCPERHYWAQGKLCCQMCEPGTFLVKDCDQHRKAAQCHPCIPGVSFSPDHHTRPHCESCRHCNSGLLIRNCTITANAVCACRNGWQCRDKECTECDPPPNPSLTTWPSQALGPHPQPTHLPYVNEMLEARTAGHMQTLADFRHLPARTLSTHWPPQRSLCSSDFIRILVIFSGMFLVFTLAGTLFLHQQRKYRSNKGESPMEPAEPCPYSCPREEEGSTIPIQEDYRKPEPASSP

binding result (human CD27): binds | binding result [1]: no binding
B1: hCD27.15-c4 (antibody, human IgG4 S228P, kappa, V domains shown)
VH: EVRLQQSGADLVKPGASVKLSCTASGFIIKATYMHWVRQRPEQGLEWIGRIDPANGETKYDPKFQVKATITADTSSSTAYLQLNSLTSDDTAVYYCARYAWYFDVWGAGTTVTVSS
VL: DIQMTQSPASLSASVGDTVTITCRASENIYSFLAWYHQKQGRSPQLLVYHAKTLAEGVPSRFSGSGSGTQFSLKINSLQAEDFGSYYCQHYYGSPLTFGAGTKLEVKR
notes: also called hCD27.15 (chimeric c-4); C4-hCD27.15 chimeric antibody
